Experimental data from article PMC8409457 (2021).
Bridges are numbered along the chain shown (N, C = ends). Where no end group is shown, it is not given here.

Tests used:
Bcl-2 [1] = biological target: T1, Bcl-2 (UniProt P10415 1-239); test: SPR
Bcl-2 [2] = biological target: T1, Bcl-2; test: FP
MDM2 = MDM2 (UniProt Q00987 1-491); test: FP; reduced
Sequence of MDM2 (Q00987 whole entry): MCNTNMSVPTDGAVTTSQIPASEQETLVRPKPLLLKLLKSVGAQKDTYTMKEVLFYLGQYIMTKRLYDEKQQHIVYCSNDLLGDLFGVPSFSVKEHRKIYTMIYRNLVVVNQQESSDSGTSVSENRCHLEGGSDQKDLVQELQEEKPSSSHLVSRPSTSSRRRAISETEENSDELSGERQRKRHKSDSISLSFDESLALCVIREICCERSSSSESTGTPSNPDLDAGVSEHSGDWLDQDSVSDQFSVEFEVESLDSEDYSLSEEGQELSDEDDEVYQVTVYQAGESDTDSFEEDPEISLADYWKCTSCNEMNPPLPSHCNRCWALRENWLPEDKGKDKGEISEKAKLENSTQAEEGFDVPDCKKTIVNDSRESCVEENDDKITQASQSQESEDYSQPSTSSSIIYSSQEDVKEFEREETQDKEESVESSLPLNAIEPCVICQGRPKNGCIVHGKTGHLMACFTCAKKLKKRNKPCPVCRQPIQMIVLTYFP

T1 sequence (P10415 whole entry): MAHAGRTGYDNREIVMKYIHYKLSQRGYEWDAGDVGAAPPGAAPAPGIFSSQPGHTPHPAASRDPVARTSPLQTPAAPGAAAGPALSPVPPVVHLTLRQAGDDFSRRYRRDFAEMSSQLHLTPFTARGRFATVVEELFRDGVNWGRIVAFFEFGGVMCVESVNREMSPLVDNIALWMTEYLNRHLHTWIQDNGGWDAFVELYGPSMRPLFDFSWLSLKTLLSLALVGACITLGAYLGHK

## GCMILLDTDIWCPCSHPYACPENICC (disulfide 12-26 (inferred); disulfide 14-20, 2-25) [oxidized peptide 16]
Bcl-2 [1]
  koff: 0.0498 s⁻¹
Bcl-2 [2]
  Ki: 770 nM

## GCEKATESESPCPCIFPELCPWIVCC (cysteines reduced (no disulfide bonds)) [reduced linear peptide 15]
MDM2
  Ki: 1120 nM
